{"source": "patent US12083109B2", "about": "“Neurokinin antagonists and uses thereof” (California Institute of Technology, priority 2017, dated 2024)", "molecules": {"B1": {"name": "shRNA-1: small hairpin RNA for mouse Tac2 gene (SEQ ID NO: 9, 10), expressed from AAV5-H1-shRNA-CMV-zsGreen (nucleic acid)", "chain 1": "CCGACGTGGTTGAAGAGAACACCGCTTCCTGTCACGGTGTTCTCTTCAACCACGTCTTTTTT", "chain 2": "AAAAAAGACGTGGTTGAAGAGAACACCGTGACAGGAAGCGGTGTTCTCTTCAACCACGTCGG"}, "B2": {"name": "shRNA-2: small hairpin RNA for mouse Tac2 gene (SEQ ID NO: 11, 12), expressed from AAV5-H1-shRNA-CMV-zsGreen (nucleic acid)", "chain 1": "CCGCCTCAACCCCATAGCAATTAGCTTCCTGTCACTAATTGCTATGGGGTTGAGGCTTTTTT", "chain 2": "AAAAAAGCCTCAACCCCATAGCAATTAGTGACAGGAAGCTAATTGCTATGGGGTTGAGGCGG"}}, "key": {"[1]": {"system": "Tac2", "assay": "Looming disk assay, Tac2 shRNA knockdown", "assay_type": "in vivo, mouse", "details": "SIS mice", "excerpt": "(§1) Small hairpin RNA (shRNA) for the mouse Tac2 gene (NM_009312.2) were designed using the online designing tool siDirect 2.0 (http://sidirect2.mai.jp/) (Naito et al., 2009; incorporated by reference in its entirety).\n(§2) 8-16 week old mice were anesthetized with isoflurane and mounted in a stereotaxic apparatus (Kopf Instruments). Anesthesia was maintained throughout surgery at 1-1.5% isoflurane. The skull was exposed and small burr holes produced dorsal to each injection site using a stereotaxic mounted drill. Virus was backfilled into pulled fine glass capillaries (˜50 μm diameter at tip) and pressure injections of 300 nl were made bilaterally into either the dBNSTa (AP +0.25, ML ±0.85, DV −4.1), DMH (AP −1.3, ML±0.35, DV −5.6), or CeA (AP −1.4, ML ±2.6, DV −4.73) at a rate of 30nl per minute using a nanoliter injector (Nanoliter 2000, World Precision Instruments) controlled by an ultra microsyringe pump (Micro4, World Precision Instruments). Capillaries remained in place for 5 minutes following injections to allow for full diffusion of virus and to reduce backflow up the injection tract. Skin above the skull was then drawn together and sealed with GLUture (Zoetis). For bilateral cannula implantations, single or double guide cannulas (custom, Plastics One) aimed 0.5 mm above each region were implanted and held in place with dental cement (Parkell). Compatible dummy cannulas with a 0.5 mm protrusion at the tip were inserted to prevent cannula clogging. Directly following surgery, mice were given a subcutaneous injection of ketoprofen (2 mg/kg) and supplied with drinking water containing 400 mg/L sulphamethoxazole and 200 mg/L ibuprofen and monitored for 7 days. Dummies were replaced every 2-3 days to keep cannula tracts clean. All injections were subsequently verified histologically.\nFreezing behavior to presentation of an overhead looming disk proceeded as previously described (Kunwar et al., 2015; Yilmaz and Meister, 2013; incorporated by reference in their entirety). Briefly, mice were transported to a novel behavioral testing room. […] Behavior was recorded using a video recorder attached to a laptop equipped with video capture software (Corel VideoStudio Pro). Acute freezing behavior to the looming disk (“during”) as well as in the 30 seconds following the last disk (“post”) were scored manually (Behavior Annotator, MATLAB) by an observer blind to environmental conditions.\nTo further investigate a role for local Tac2 release in mediating different effects of SIS, we asked next whether Tac2 synthesis played a role in each of the three brain regions studied, via targeted shRNAi-mediated knockdown of Tac2. […] Injections were histologically verified by zsGreen fluorescence. […]"}, "[2]": {"system": "Tac2", "assay": "Tone fear test, Tac2 shRNA knockdown", "assay_type": "in vivo, mouse", "details": "SIS mice", "excerpt": "as §1, §2\nThe protocol for tone trace fear conditioning was performed as previously described (Cushman et al., 2014; incorporated by reference in its entirety) using fear conditioning boxes previously described in detail (Haubensak et al., 2010; Kunwar et al., 2015; incorporated by reference in their entirety). Briefly, mice were transported in squads of four on a white cart to a novel behavioral testing room containing 4 sound-attenuating fear-conditioning chambers (Med Associates). This “training context” was comprised of flat grid flooring (wired to a shock generator and scrambler for footshock delivery, Med Associates), houselights, and the presence of an internal fan for background noise. Chambers were sprayed with 70% Simple Green solution on the underlying chamber pan to generate a unique contextual scent and chambers were cleaned with 70% EtOH between squads. […]"}}, "note": "“Also recorded” adds a separate entry of the source.", "data": [{"molecule": "B1", "values": [{"measurement": "freezing to looming disk (acute, during stimulus)", "setting": "[1]; AAV shRNA in CeA", "result": "blocked"}, {"measurement": "acute (during) freezing to looming disk", "setting": "[1]; AAV shRNA in dBNSTa", "result": "had no effect"}, {"measurement": "persistent (post) freezing to looming disk", "setting": "[1]; AAV shRNA in dBNSTa", "result": "blocked; also recorded: strongly reduced"}, {"measurement": "freezing to conditioned tone", "setting": "[2]; AAV shRNA in CeA", "result": "blocked"}, {"measurement": "acute (during) freezing to conditioned tone", "setting": "[2]; AAV shRNA in dBNSTa", "result": "had no effect"}, {"measurement": "persistent (post) freezing to conditioned tone", "setting": "[2]; AAV shRNA in dBNSTa", "result": "blocked; also recorded: strongly reduced"}]}, {"molecule": "B2", "values": [{"measurement": "acute (during) freezing to looming disk", "setting": "[1]; AAV shRNA in dBNSTa", "result": "additionally reduced; also recorded: significantly reduced"}, {"measurement": "acute (during) freezing to conditioned tone", "setting": "[2]; AAV shRNA in dBNSTa", "result": "additionally reduced; also recorded: significantly reduced"}]}]}
